Laboratory results as given in the Human Domainome abundance scans (Beltran et al. 2025).
± gives the uncertainty stated by the source.

B1: Serine/threonine-protein kinase LATS1, residues 98 to 141; numbered along this chain, O95835 (parent)
chain: TSEVNPQMLQDLQAAGFDEDMVIQALQKTNNRSIEAAIEFISKM

Variants of: B1
Assay: abundance fitness (aPCA) (normalised: wild type 0, dead -1); higher = more abundant; growth selection in yeast, the domain comes from the species named
Conditions: Homo sapiens

TSEVNPQMLQDLQAAGFDEDMVIQALQWTNNRSIEAAIEFISKM [K28W] and TSEVNPQMLQDLQAAGFDEDMVIQAQQKTNNRSIEAAIEFISKM [L26Q] are within error of each other in abundance fitness: -0.444 ± 0.035 for the first, -0.412 ± 0.05 for the second.

TSEVNPQMLQDLQAAGFDEDMVIQAEQKTNNRSIEAAIEFISKM [L26E] and TSEVNPQMLQDLQAAGFDEDMVIQAHQKTNNRSIEAAIEFISKM [L26H] are within error of each other in abundance fitness: -0.263 ± 0.041 for the first, -0.111 ± 0.16 for the second.

First: TSEVNPQMLQDLQAAGFDEDPVIQALQKTNNRSIEAAIEFISKM [M21P]
Second: TSEVNPQMLQDLQAAGFDEDKVIQALQKTNNRSIEAAIEFISKM [M21K]
The abundance fitness of the first is lower: -0.491 ± 0.051 for the first, -0.059 ± 0.062 for the second.

First: TSEVNPQMLQDLQAAGFHEDMVIQALQKTNNRSIEAAIEFISKM [D18H]
Second: TSEVNPQMLQDLQAAGFMEDMVIQALQKTNNRSIEAAIEFISKM [D18M]
The abundance fitness of the first is higher: -0.159 ± 0.1 for the first, -0.59 ± 0.058 for the second.

Compared with TSEVNPQMLQDLQAAGFLEDMVIQALQKTNNRSIEAAIEFISKM [D18L], TSEVNPQMLQDLQAAGFQEDMVIQALQKTNNRSIEAAIEFISKM [D18Q] is higher in abundance fitness: -0.617 ± 0.057 for the first, -0.077 ± 0.068 for the second.

TSEVNPQMLQDLQAAGFDEPMVIQALQKTNNRSIEAAIEFISKM [D20P] and TSEVNPQMLQDLQAAGFDEHMVIQALQKTNNRSIEAAIEFISKM [D20H] are within error of each other in abundance fitness: -0.166 ± 0.055 for the first, -0.234 ± 0.082 for the second.

TSEVNPQMLQDLQAAGFDEGMVIQALQKTNNRSIEAAIEFISKM [D20G] and TSEVNPQMLQDLQAAGFDESMVIQALQKTNNRSIEAAIEFISKM [D20S] are within error of each other in abundance fitness: -0.081 ± 0.031 for the first, -0.063 ± 0.044 for the second.

First: TSEVPPQMLQDLQAAGFDEDMVIQALQKTNNRSIEAAIEFISKM [N5P]
Second: TSEVNPQMLQDLQAAGFDEDMVIQALQKTNNRSIEAAIEFIKKM [S42K]
The abundance fitness of the first is lower: -0.637 ± 0.052 for the first, 0.055 ± 0.077 for the second.

TSEVNPQMLQDLQAAGFDEDMVIQALQKTNNRSIEAAIEFIDKM [S42D] and TSEVNPQMLQDLQAAGFDEDMVIQALQKTNNRSIEAAIEFIHKM [S42H] are within error of each other in abundance fitness: 0.033 ± 0.05 for the first, 0.054 ± 0.071 for the second.

First: TSEVNPQMLQDLQAAGFDEDMVIQALQKTNNRSIEAAIEFIEKM [S42E]
Second: TSEVNPQMLQDLQAAGFDEDMVIQALQKTNNRSIEAAIEFILKM [S42L]
The abundance fitness of the first is higher: 0.136 ± 0.038 for the first, -0.248 ± 0.045 for the second.

First: TSEVNPQMLQDLQAAGFDEDMVIQALQKTNNRSIEAAIEFIQKM [S42Q]
Second: TSEVNPQMNQDLQAAGFDEDMVIQALQKTNNRSIEAAIEFISKM [L9N]
The abundance fitness of the first is higher: 0.127 ± 0.052 for the first, -0.445 ± 0.12 for the second.

Going from TSEVNPQMLQDLQAAGFDEDMVIQALQKTNNRQIEAAIEFISKM [S33Q] to TSEVNPQMLQDLQAAGFDEDMVIQALQKTNNRPIEAAIEFISKM [S33P], the abundance fitness rises from -1.02 ± 0.11 to -0.627 ± 0.06.

Going from TSEVNPQMLQDLQAAGFDEDMVIQALQKTNNRMIEAAIEFISKM [S33M] to TSEVNPQMLQDLQAAGFDEDMVIQALQKTNNREIEAAIEFISKM [S33E], the abundance fitness rises from -0.96 ± 0.083 to -0.665 ± 0.086.

First: KSEVNPQMLQDLQAAGFDEDMVIQALQKTNNRSIEAAIEFISKM [T1K]
Second: TSEVNPQMLQDLQAAGIDEDMVIQALQKTNNRSIEAAIEFISKM [F17I]
The abundance fitness of the first is higher: -0.012 ± 0.047 for the first, -0.399 ± 0.086 for the second.

First: TSEVNPQMLQDLQAAGPDEDMVIQALQKTNNRSIEAAIEFISKM [F17P]
Second: TSEVNPQMLQDLQAAGGDEDMVIQALQKTNNRSIEAAIEFISKM [F17G]
The abundance fitness of the first is lower: -0.601 ± 0.058 for the first, -0.465 ± 0.036 for the second.

TSEVNPQMLTDLQAAGFDEDMVIQALQKTNNRSIEAAIEFISKM [Q10T] and TSEVNPQMLIDLQAAGFDEDMVIQALQKTNNRSIEAAIEFISKM [Q10I] are within error of each other in abundance fitness: -0.195 ± 0.04 for the first, -0.267 ± 0.044 for the second.

First: TSEVNPQMLWDLQAAGFDEDMVIQALQKTNNRSIEAAIEFISKM [Q10W]
Second: TSEVNPQMLEDLQAAGFDEDMVIQALQKTNNRSIEAAIEFISKM [Q10E]
The abundance fitness of the first is lower: -0.295 ± 0.042 for the first, -0.077 ± 0.039 for the second.

Compared with TSEVNPQMLQDLQAAGFDEDMVIQALQKTNNRSAEAAIEFISKM [I34A], TSEVNPQMLQDLQAAGFDEDMVIQALQKTNNRSSEAAIEFISKM [I34S] is lower in abundance fitness: -0.043 ± 0.034 for the first, -0.189 ± 0.044 for the second.

First: TSEVNPQMLQDLQAAGFDEDMVIQALQKTNNRSWEAAIEFISKM [I34W]
Second: TSEVNPQMLQDLQAAGFDEDMVIQALQKTNNRSLEAAIEFISKM [I34L]
The abundance fitness of the first is lower: -0.505 ± 0.06 for the first, -0.005 ± 0.037 for the second.

Compared with TSEVNPQMLQDLQAAGFDEDMVIQALQKTNNRSFEAAIEFISKM [I34F], TSEVNPQMLQDLQAAGFDEDMVIQALQKTNNRSMEAAIEFISKM [I34M] is higher in abundance fitness: -0.192 ± 0.074 for the first, 0.04 ± 0.037 for the second.

Compared with TSEVNPQMLQDLQAAGFDEDMVIQALQKTNERSIEAAIEFISKM [N31E], TSEVNPQMLQDLQPAGFDEDMVIQALQKTNNRSIEAAIEFISKM [A14P] is lower in abundance fitness: -0.253 ± 0.042 for the first, -0.898 ± 0.15 for the second.

First: TSEVNPQMLQDLQMAGFDEDMVIQALQKTNNRSIEAAIEFISKM [A14M]
Second: TSEVNPQMLQDLQEAGFDEDMVIQALQKTNNRSIEAAIEFISKM [A14E]
The abundance fitness of the first is lower: -0.151 ± 0.058 for the first, 0.039 ± 0.039 for the second.

Going from TSEPNPQMLQDLQAAGFDEDMVIQALQKTNNRSIEAAIEFISKM [V4P] to TSEDNPQMLQDLQAAGFDEDMVIQALQKTNNRSIEAAIEFISKM [V4D], the abundance fitness falls from -0.057 ± 0.054 to -0.344 ± 0.049.

TSEVNPQMLQNLQAAGFDEDMVIQALQKTNNRSIEAAIEFISKM [D11N] and TSEVNPQMLQMLQAAGFDEDMVIQALQKTNNRSIEAAIEFISKM [D11M] are within error of each other in abundance fitness: -0.004 ± 0.14 for the first, -0.154 ± 0.047 for the second.

Compared with TSEVNPQMLQELQAAGFDEDMVIQALQKTNNRSIEAAIEFISKM [D11E], TSEVNPQMLQYLQAAGFDEDMVIQALQKTNNRSIEAAIEFISKM [D11Y] is lower in abundance fitness: 0.091 ± 0.043 for the first, -0.086 ± 0.055 for the second.

Compared with TSEVNPQMLQRLQAAGFDEDMVIQALQKTNNRSIEAAIEFISKM [D11R], TSEVNPQMLQALQAAGFDEDMVIQALQKTNNRSIEAAIEFISKM [D11A] is higher in abundance fitness: -0.134 ± 0.035 for the first, -0.017 ± 0.033 for the second.

Going from TSEVNPQMLQDLQAARFDEDMVIQALQKTNNRSIEAAIEFISKM [G16R] to TSEVNPQMLQDLQAATFDEDMVIQALQKTNNRSIEAAIEFISKM [G16T], the abundance fitness rises from -1.1 ± 0.072 to -0.72 ± 0.073.

Going from TSEVNPQMLQDLQAACFDEDMVIQALQKTNNRSIEAAIEFISKM [G16C] to TSNVNPQMLQDLQAAGFDEDMVIQALQKTNNRSIEAAIEFISKM [E3N], the abundance fitness rises from -0.914 ± 0.11 to -0.119 ± 0.14.

TSTVNPQMLQDLQAAGFDEDMVIQALQKTNNRSIEAAIEFISKM [E3T] and TSHVNPQMLQDLQAAGFDEDMVIQALQKTNNRSIEAAIEFISKM [E3H] are within error of each other in abundance fitness: -0.126 ± 0.054 for the first, -0.148 ± 0.071 for the second.
